The target in experiment [1] is T1, cynomolgus monkey OSM (cOSM) (cynomolgus monkey, UniProt P13725 26-221 (human entry), limits assumed).
T1 construct: also called cynomolgus OSM
T1 chain: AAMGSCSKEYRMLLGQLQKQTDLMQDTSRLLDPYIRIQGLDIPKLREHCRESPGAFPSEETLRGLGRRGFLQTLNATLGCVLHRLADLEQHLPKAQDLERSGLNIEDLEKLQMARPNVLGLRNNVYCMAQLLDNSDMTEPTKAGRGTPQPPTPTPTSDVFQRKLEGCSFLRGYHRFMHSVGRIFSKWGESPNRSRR
The experiment in a line: gp130 inhibition ELISA and KB cell assay. (In general: ELISA stands for enzyme-linked immunosorbent assay.)

Experiment [2] concerns the target T1, cynomolgus monkey OSM (cOSM). Briefly: gp130 inhibition ELISA, cynomolgus OSM.
Experiment [3] concerns the target T2, glycosylated human OSM (hOSM) produced in CHO cells (human) (UniProt P13725).
T2 sequence (chain, glycosylated (CHO cell glycosylated)): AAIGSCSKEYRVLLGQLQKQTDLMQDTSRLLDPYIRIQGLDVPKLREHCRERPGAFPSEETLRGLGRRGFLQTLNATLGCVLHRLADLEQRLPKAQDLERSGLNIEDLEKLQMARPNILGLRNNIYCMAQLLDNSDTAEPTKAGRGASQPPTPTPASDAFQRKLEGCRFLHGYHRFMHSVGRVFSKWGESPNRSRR
Briefly: competition ELISA: murine 10D3 titrated against 15E10-B3L2 (150 ng/ml, the competitor) on soluble glycosylated hOSM (50 ng/ml), capture by OM4-11.31, anti-human gamma chain detection.

The target in experiment [4] is T3, human Oncostatin M (hOSM) (human, UniProt P13725 26-221).
T3 construct: also called human OSM
T3 sequence: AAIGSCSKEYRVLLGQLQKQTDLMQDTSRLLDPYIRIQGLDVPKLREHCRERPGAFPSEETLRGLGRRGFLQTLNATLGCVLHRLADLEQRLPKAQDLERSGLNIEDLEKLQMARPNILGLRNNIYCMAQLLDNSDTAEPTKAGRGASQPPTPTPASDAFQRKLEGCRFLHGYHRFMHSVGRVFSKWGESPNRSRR
Briefly: gp130 ELISA, hOSM.

Experiment [5] concerns the target T1, cynomolgus monkey OSM (cOSM). The experiment in a line: gp130 inhibition ELISA, purified antibodies.

B1: 15E10 chimaeric antibody (antibody, human IgG1, V domains shown)
VH: QVQLKQSGPGLVQPSQSLSITCTVSGFSLTNYGVHWVRQSPGKGLEWLGVIWRGGSTDYNAAFMSRLSITKDNSRSQVFFKMNSLQADDTAIYYCAKSPNSNFYWYFDVWGTGTTVTVSS
VL: QIVLTQSPTIMSASPGEKVTMTCSGSSSVSYMYWYQEKPGSSPRLLIEDTSNLASGVPARFSGSGSGTSYSLTISRMEAEDAATYYCQQWSSYPPTFGSGTKLEIK
notes: expressed in CHO; also called chimaeric 15E10; 15E10 chimaera
Turning to B1, in experiment [1], the binding result is “binds”.

B2: 15E10 murine antibody (antibody, mouse IgG2a, V domains shown)
VH: QVQLKQSGPGLVQPSQSLSITCTVSGFSLTNYGVHWVRQSPGKGLEWLGVIWRGGSTDYNAAFMSRLSITKDNSRSQVFFKMNSLQADDTAIYYCAKSPNSNFYWYFDVWGTGTTVTVSS
VL: QIVLTQSPTIMSASPGEKVTMTCSGSSSVSYMYWYQEKPGSSPRLLIEDTSNLASGVPARFSGSGSGTSYSLTISRMEAEDAATYYCQQWSSYPPTFGSGTKLEIK
notes: also called clone 15E10; parent murine 15E10
In the case of B2, in experiment [2], the binding result was “binds”.

B3: 10D3 chimaeric antibody (antibody, human IgG1, V domains shown)
VH: EVQLQQSGPELVKPGASVKISCKASGYIFTDYNMDWVKQSHGKKLEWIGDINPNNGGTIDNQKFKDKATLTVDKSSSTAYMELRSLTSEDTAVYYCARGIYYYGSHYFDYWGQGTTLTVSS
VL: QIVLTQSPAIMSASPGEKVTMTCSATSSVSVMHWFQKKSGTSPKRWIYDTSKLASGVPTRFSGSGSGTSYSLTISSMEAEDTATYYCQQWSSNPLTFGSGTKLELK
notes: expressed in CHO; also called chimaeric 10D3; chimeric 10D3
B3 yielded a % inhibition of 15E10 at equimolarity (0.15μg/ml) in experiment [3] of 62.3%. For the same molecule, the IC50 in experiment [4] worked out at 0.032 µg/mL.

B4: humanised 15E10 antibody B3L2 (antibody, human IgG1, kappa, V domains shown)
VH: QVQLVESGGGVVQPGRSLRLSCAASGFSLTNYGVHWVRQAPGKGLEWVAVIWRGGSTDYNAAFMSRFTISKDNSKNTLYLQMNSLRAEDTAVYYCAKSPNSNFYWYFDVWGRGTLVTVSS
VL: EIVLTQSPATLSLSPGERATLSCSGSSSVSYMYWYQQKPGQAPRLLIEDTSNLASGIPARFSGSGSGTDYTLTISNLEPEDFAVYYCQQWSSYPPTFGQGTKLEIKR
notes: Human IgG1 wild type / kappa; purified from CHO; also called B3L2 wt; 15E10-B3L2
For B4, the binding result in experiment [5] is given as “binds”.

Usually IC50 stands for the midpoint of a concentration-inhibition curve.

Values taken from WO2005095457A2 (dated 2005).
